Results taken from US9988424 (DUKE UNIVERSITY, dated 2018).

Tests used:
A.9004SS V1/V2 tags = target: T1, A.9004SS V1/V2 tags; experiment: ELISA, OD405 at 10 ug/ml
T1 V1V2 tags construct: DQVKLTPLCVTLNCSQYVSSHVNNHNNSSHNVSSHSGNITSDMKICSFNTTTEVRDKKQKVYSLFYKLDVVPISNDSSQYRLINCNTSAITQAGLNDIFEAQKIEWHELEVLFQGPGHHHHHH

AE.con gp140CF = experiment: ELISA, OD405 at 10 ug/ml
B.62357 gp140C = target: T2, B.62357 gp140C; experiment: ELISA, OD405 at 10 ug/ml
T2 construct: also called B.62357 140C

B.63521_V1/V2 tags = experiment: ELISA, OD405 at 10 ug/ml
C.1086 gp140 = target: T3, C.1086 gp140; experiment: ELISA, OD405 at 10 ug/ml
T3 construct: also called C.1086gp140C

Con 6 gp120 = experiment: ELISA, OD405 at 10 ug/ml
D.9009SA V1/V2 tags = experiment: ELISA, OD405 at 10 ug/ml
G.con gp140CF = experiment: ELISA, OD405 at 10 ug/ml
C.CAP206 gp140CF.12 = C.CAP206 gp140CF.12 (HIV-1); experiment: ELISA, OD405 at 10 ug/ml
C.1086 V1V2 Tags = C.1086 V1V2 Tags (HIV-1); experiment: ELISA, OD405 at 10 ug/ml
gp70 C.1086 V1/V2 = target: T4, gp70 C.1086 V1/V2 (HIV-1 V1V2 on murine leukemia virus gp70); experiment: ELISA, OD405 at 10 ug/ml
T4 construct: also called C.gp70 1086C V1V2; C.1086gp70V1V2
T4 chain: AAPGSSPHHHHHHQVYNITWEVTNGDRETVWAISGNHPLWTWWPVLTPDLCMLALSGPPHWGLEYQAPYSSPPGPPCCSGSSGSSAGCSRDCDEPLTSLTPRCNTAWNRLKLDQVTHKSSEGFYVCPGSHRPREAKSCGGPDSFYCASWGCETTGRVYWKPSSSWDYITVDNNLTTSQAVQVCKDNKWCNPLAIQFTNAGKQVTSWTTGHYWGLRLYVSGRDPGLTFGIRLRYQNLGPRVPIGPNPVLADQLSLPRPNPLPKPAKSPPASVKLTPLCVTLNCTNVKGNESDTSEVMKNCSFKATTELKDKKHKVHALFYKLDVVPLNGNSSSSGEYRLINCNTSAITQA

AE.97CNG2XF gp140CF = target: T5, AE.97CNG2XF gp140CF (HIV-1); experiment: ELISA, OD405 at 10 ug/ml
T5 construct: also called E.97CNGX2F gp140CF

B.HXB/BAL gp140CFI = target: T6, B.HXB/BAL gp140CFI (HIV-1, UniProt P04578 33-680); experiment: ELISA, OD405 at 10 ug/ml
T6 construct: also called B.HxB/Ba gp140 CFI

B.9021 gp140C = B.9021 gp140C (HIV-1); experiment: ELISA, OD405 at 10 ug/ml
SIV CPZ US-1 gp140CF = target: T7, SIV CPZ US-1 gp140CF (SIVcpz); experiment: ELISA, OD405 at 10 ug/ml
T7 construct: also called US-1 SIVCPZ gp140CF
T7 chain: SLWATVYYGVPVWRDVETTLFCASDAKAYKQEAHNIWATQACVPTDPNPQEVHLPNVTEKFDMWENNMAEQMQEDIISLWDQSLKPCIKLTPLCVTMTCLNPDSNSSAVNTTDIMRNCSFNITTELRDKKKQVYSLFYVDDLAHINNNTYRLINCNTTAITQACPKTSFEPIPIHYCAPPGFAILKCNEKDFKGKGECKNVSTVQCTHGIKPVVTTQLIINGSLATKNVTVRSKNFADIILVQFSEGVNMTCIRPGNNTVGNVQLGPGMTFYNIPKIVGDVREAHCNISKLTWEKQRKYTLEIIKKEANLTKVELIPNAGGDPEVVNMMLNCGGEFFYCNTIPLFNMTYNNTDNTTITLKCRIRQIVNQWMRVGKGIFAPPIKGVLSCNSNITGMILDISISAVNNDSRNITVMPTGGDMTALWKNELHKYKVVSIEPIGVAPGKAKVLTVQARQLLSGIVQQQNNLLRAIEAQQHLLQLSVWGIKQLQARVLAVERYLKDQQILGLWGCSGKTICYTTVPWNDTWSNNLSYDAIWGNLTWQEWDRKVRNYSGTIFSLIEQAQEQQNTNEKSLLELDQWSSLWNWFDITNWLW

B.con gp140CF = experiment: ELISA, OD405 at 10 ug/ml
J08 A.92RW020V1V2 = J08 A.92RW020V1V2 (HIV-1); experiment: ELISA, OD405 at 10 ug/ml
J08 B.HXB2/BALV1V2 = target: T8, J08 B.HXB2/BALV1V2 (HIV-1); experiment: ELISA, OD405 at 10 ug/ml
T8 construct: also called J08 B.HXB/BAL V1V2
T8 chain: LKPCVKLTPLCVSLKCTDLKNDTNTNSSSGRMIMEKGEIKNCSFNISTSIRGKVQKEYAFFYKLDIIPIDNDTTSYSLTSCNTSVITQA

AE.A244 V1V2 Tags = AE.A244 V1V2 Tags (HIV-1)

B1: 697D reverted unmutated ancestor antibody (antibody, V domains shown)
VH: QVQLVQSGAEVKKPGSSVKVSCKASGGTFSSYTISWVRQAPGQGLEWMGRIIPILGIANYAQKFQGRVTITADKSTSTAYMELSSLRSEDTAVYYCATSGVGLHFGYFDYWGQGTLVTVSS
VL: QSVLTQPPSVSGAPGQRVTISCTGSSSNIGAGYDVHWYQQLPGTAPKLLIYGNSNRPSGVPDRFSGSKSGTSASLAITGLQAEDEADYYCQSYDSSLSGYVFGTGTKVTVL
notes: also called 697D RUA
binding result (A.9004SS V1/V2 tags): no binding (tested: 10 ug/ml) | binding result (AE.con gp140CF): no binding (tested: 10 ug/ml) | binding result (B.62357 gp140C): no binding (tested: 10 ug/ml) | binding result (B.63521_V1/V2 tags): no binding (tested: 10 ug/ml) | binding result (C.1086 gp140): no binding (tested: 10 ug/ml) | binding result (Con 6 gp120): no binding (tested: 10 ug/ml) | binding result (D.9009SA V1/V2 tags): no binding (tested: 10 ug/ml) | binding result (G.con gp140CF): no binding (tested: 10 ug/ml) | binding result (C.CAP206 gp140CF.12): no binding (tested: 10 ug/ml) | binding result (C.1086 V1V2 Tags): no binding (tested: 10 ug/ml) | binding result (gp70 C.1086 V1/V2): no binding (tested: 10 ug/ml) | binding result (AE.97CNG2XF gp140CF): no binding (tested: 10 ug/ml) | binding result (B.HXB/BAL gp140CFI): no binding (tested: 10 ug/ml) | binding result (B.9021 gp140C): no binding (tested: 10 ug/ml) | binding result (SIV CPZ US-1 gp140CF): no binding (tested: 10 ug/ml)

B2: PG16 (antibody, V domains shown)
VH: QEQLVESGGGVVQPGGSLRLSCLASGFTFHKYGMHWVRQAPGKGLEWVALISDDGMRKYHSDSMWGRVTISRDNSKNTLYLQFSSLKVEDTAMFFCAREAGGPIWHDDVKYYDFNDGYYNYHYMDVWGKGTTVTVSS
VL: QSALTQPASVSGSPGQTITISCNGTSSDVGGFDSVSWYQQSPGKAPKVMVFDVSHRPSGISNRFSGSKSGNTASLTISGLHIEDEGDYFCSSLTDRSHRIFGGGTKVTVL
notes: also called mAb PG16; bnAb PG16
binding result (B.con gp140CF): no binding (tested: 10 ug/ml) | binding result (J08 A.92RW020V1V2): no binding (tested: 10 ug/ml) | binding result (J08 B.HXB2/BALV1V2): no binding (tested: 10 ug/ml)

B3: CH59 (antibody, V domains shown)
VH: EVQLVESGGGLVQPGRSLRLSCAASGFTFDDGAMHWVRQAPGKGLEWVSGISWNSNIIAYADSVKGRFTISRDNAKNSLYLEMNSLRVEDTALYYCAKDSPRGELPLNYWGQGTLVTVSS
VL: SYELTQPPSVSVSPGQTARITCSGDALPKNYAYWYQQKSGQAPVLVIYEDSKRPSGIPERFSGSSSGTMATLTISGAQVEDEADYYCYSTDSSGNHRVFGGGTKLTVL
notes: also called mAb CH59
Kd (AE.A244 V1V2 Tags): 0.48 nM | koff (AE.A244 V1V2 Tags): 0.00011 s⁻¹ | kon (AE.A244 V1V2 Tags): 238000 M⁻¹ s⁻¹
